Experimental findings from doi:10.1101/2021.08.10.455837 are described below.

The target in the experiment is human HBEGF (human) (UniProt Q99075).
UniProt Q99075, sequence (Q99075 20-208): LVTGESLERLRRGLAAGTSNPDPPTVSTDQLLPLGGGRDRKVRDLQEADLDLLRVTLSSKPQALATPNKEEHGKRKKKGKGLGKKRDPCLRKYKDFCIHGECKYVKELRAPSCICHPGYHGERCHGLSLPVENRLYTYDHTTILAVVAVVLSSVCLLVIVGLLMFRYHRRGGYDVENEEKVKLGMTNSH

Take “Diphtheria toxin (from UniProt P00588 33-567) (natural protein)”: the EC50 of toxicity (dose titration) on WT ARN8 cells (basal levels of HBEGF) was 0.026 nM.
